# In US20230391828:
# Tested on: T1, G3-6, Ac-cyclo(4,11)-EWWZIKEIQRXRRA-NH2
# T1 sequence: EWWXIKEIQRXRRA
substance,measurement,value
"recombinant human APC/C (Strep-tagged APC4), expressed in SF9 cells","in vitro APC/C ubiquitination assay with different E2 enzymes (UBE2C, UBE2D, UBE2S), Ub-cyclin B1 substrate, 100 µM, 40 min",The lead molecule G3-6 (SEQ. ID. NO. 33) inhibits APC/C in vitro independently on employed E2 enzymes.
